Earlier results, collected in article PMC8622359.
Like-named read-outs stand apart in the source and are kept apart here. Each block holds one substance with its values, some of them ahead of it.

Legend:
[1] = target: SAC3 (Saccharomyces cerevisiae) (UniProt P46674)
[2] = target: SAC3 (Saccharomyces cerevisiae) (UniProt P46674); remark: listed apart in the source
[3] = target: KAR1 (Saccharomyces cerevisiae) (UniProt P11927); assay: given as Ka
[4] = target: SAC3 (Saccharomyces cerevisiae) (UniProt P46674); assay: given as Ka
[5] = target: SAC3 (Saccharomyces cerevisiae); assay: given as Ka
[6] = target: ScSFI1 (R18) (Saccharomyces cerevisiae); assay: given as Ka
Sequence of ScSFI1 (R18) (Saccharomyces cerevisiae) (Q12369 680-699): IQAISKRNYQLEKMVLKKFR

[7] = target: ScSFI1 (R19) (Saccharomyces cerevisiae); assay: given as Ka
Sequence of ScSFI1 (R19) (Saccharomyces cerevisiae) (Q12369 710-729): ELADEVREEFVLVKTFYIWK

[8] = target: ScSFI1 (R18) (Saccharomyces cerevisiae); assay: given as Ka; remark: listed apart in the source
[9] = target: KAR1 (Saccharomyces cerevisiae) (UniProt P11927); assay: given as Ka; remark: listed apart in the source
[10] = target: ScSFI1 (R19) (Saccharomyces cerevisiae); assay: given as Ka; remark: listed apart in the source
[11] = target: HsSFI1 (R18) (Homo sapiens); assay: given as Ka
Sequence of HsSFI1 (R18) (Homo sapiens) (A8K8P3 670-692): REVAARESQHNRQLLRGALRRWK

[12] = target: HsSFI1 (R18) (Homo sapiens); assay: given as Ka; remark: listed apart in the source
[13] = target: Transducin β (Homo sapiens) (UniProt P62873); assay: given as Ka
[14] = target: HsSFI1 (R17) (Homo sapiens); assay: given as Ka
Sequence of HsSFI1 (R17) (Homo sapiens) (A8K8P3 641-660): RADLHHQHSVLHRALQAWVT

[15] = target: PRP40A (Homo sapiens) (UniProt O75400); assay: given as Ka
Sequence of PRP40A (Homo sapiens) (O75400 524-556): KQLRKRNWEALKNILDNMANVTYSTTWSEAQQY

[16] = target: XPC (Homo sapiens); assay: given as Ka
[17] = target: HsSFI1 (R17) (Homo sapiens); assay: given as Ka; remark: listed apart in the source
[18] = target: XPC (Homo sapiens); assay: given as Ka; remark: listed apart in the source
[19] = target: AtRAD4 (Arabidopsis thaliana)
[20] = target: AtRAD4 (Arabidopsis thaliana); remark: listed apart in the source
[21] = target: SAC3B (Arabidopsis thaliana) (UniProt F4JAU2); assay: given as Ka
Sequence of SAC3B (Arabidopsis thaliana) (F4JAU2 1050-1075): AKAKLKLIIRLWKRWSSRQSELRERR

[22] = target: SAC3B (Arabidopsis thaliana) (UniProt F4JAU2); assay: given as Ka; remark: listed apart in the source

Sequence of CDC31 (P06704 whole entry): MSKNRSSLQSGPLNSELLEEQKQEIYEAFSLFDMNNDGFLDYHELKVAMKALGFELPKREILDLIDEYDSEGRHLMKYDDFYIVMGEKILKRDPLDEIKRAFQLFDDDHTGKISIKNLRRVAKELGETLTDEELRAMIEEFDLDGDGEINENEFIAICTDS
Sequence of HsCEN1 (Q12798 whole entry): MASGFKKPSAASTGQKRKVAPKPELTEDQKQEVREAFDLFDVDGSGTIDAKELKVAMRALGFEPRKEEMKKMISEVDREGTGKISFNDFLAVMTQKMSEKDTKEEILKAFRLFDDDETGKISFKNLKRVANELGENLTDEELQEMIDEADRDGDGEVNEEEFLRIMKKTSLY
Sequence of HsCEN2 (P41208 2-172): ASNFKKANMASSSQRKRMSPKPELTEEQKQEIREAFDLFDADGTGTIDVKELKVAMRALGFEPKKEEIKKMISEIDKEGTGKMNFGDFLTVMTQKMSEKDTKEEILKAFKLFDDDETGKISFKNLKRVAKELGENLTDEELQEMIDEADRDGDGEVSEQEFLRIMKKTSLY
Sequence of AtCEN2 (O23184 whole entry): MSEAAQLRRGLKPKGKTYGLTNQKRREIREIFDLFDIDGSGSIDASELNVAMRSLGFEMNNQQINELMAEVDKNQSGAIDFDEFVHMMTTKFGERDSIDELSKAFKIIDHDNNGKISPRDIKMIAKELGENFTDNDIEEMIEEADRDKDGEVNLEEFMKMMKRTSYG

Kd [1]: 45 nM | Kd [2]: 677 nM | Kd [3]: 43.5 nM | Kd [4]: 667 nM | Kd [5]: 45.5 nM | Kd [6]: 100 nM | Kd [7]: 5.26 µM | Kd [8]: 4.17 µM | Kd [9]: 2270 nM | Kd [10]: 28.6 nM
Substance: CDC31 (from UniProt P06704)

Kd [11]: 333 µM | Kd [12]: 831 nM | Kd [13]: 5.88 µM
Substance: HsCEN1 (from UniProt Q12798)

Kd [14]: 154 nM | Kd [15]: 278 nM | Kd [16]: 5.88 nM | Kd [17]: 4 µM | Kd [18]: 125 nM
Substance: HsCEN2 (from UniProt P41208)

Kd [19]: 8 µM | Kd [20]: 54 nM | Kd [21]: 667 nM | Kd [22]: 2440 nM
Substance: AtCEN2 (from UniProt O23184)
